Assay results: PMC2871011

Biological target: low-molecular-weight fibrinogen fraction I-9 isolated from plasma (human) (UniProt P02671)
Experiment: co-purification

fold less latent TGF-β than in fraction I-2: 8 fold
Substance: latent TGF-β1 (TGF-β1 with its latency-associated protein) (from UniProt P01137 30-278) (complex)
